Assay [1] has as its target FAM-labeled integrin β3 peptide (human). Nature of the assay: fluorescence polarisation.
In assay [2] the target is FITC-labeled integrin β2 peptide representing both the JM and the NPxY/F regions (human). Nature of the assay: fluorescence polarisation. In general terms: In fluorescence polarisation assays a small probe gives low polarisation when free and higher when bound to something large.

These results are taken from article doi:10.1101/2024.05.28.596271.

Some results are limits rather than exact numbers.

For the substance “THD(D397K) (from UniProt P26039 1-405) (domain or fragment)”, the fold increase in affinity over wild-type THD in assay [1] amounted to 2 fold. The term Kd denotes the equilibrium constant for the complex coming apart. Higher therefore signals a looser complex. The substance “THD(D397R) (from UniProt P26039 1-405) (domain or fragment)” returned a fold increase in affinity over wild-type THD in assay [1] of 2 fold. For the same substance, in assay [2], the Kd was over 100 µM. On to “talin head protein THD405d (residues 1-405, lacking F1-loop) (from UniProt P26039 1-405) (domain or fragment)”, for which the Kd in assay [1] worked out at 4.4 µM; in assay [2], 31.9 µM.
